Test results from article PMC4072685, “Galactose Oxidase from Fusarium oxysporum - Expression in E. coli and P. pastoris and Biochemical Characterization” (PLoS ONE, 2014).

Tests used:
[1] = test system: CO[C@@H]1O[C@H](CO)[C@H](O)[C@H](O)[C@H]1O; experiment: purified protein; conditions: apparent constant, co-substrate O2 (air), 20 mM potassium phosphate pH 7.0, 30°C, Cu2+-activated enzyme
[2] = test system: CO[C@H]1O[C@H](CO)[C@H](O)[C@H](O)[C@H]1O; experiment: purified protein; conditions: apparent constant, co-substrate O2 (air), 20 mM potassium phosphate pH 7.0, 30°C, Cu2+-activated enzyme
[3] = test system: OC[C@H]1O[C@H](OC[C@H]2O[C@H](O[C@]3(CO)O[C@H](CO)[C@@H](O)[C@@H]3O)[C@H](O)[C@@H](O)[C@@H]2O)[C@H](O)[C@@H](O)[C@H]1O; experiment: purified protein; conditions: apparent constant, co-substrate O2 (air), 20 mM potassium phosphate pH 7.0, 30°C, Cu2+-activated enzyme
[4] = molecular target: T1, GalOx (galactose 6-oxidase from Fusarium oxysporum G12) (Fusarium oxysporum, UniProt V5NQ89); experiment: ABTS/horseradish peroxidase coupled assay, […] nm, Michaelis-Menten fit; conditions: apparent constant; co-substrate O2 (air); 20 mM potassium phosphate pH 7.0, 30°C; Cu2+-activated enzyme
T1 construct: gene gao
T1 sequence (V5NQ89 40-681 limits assumed): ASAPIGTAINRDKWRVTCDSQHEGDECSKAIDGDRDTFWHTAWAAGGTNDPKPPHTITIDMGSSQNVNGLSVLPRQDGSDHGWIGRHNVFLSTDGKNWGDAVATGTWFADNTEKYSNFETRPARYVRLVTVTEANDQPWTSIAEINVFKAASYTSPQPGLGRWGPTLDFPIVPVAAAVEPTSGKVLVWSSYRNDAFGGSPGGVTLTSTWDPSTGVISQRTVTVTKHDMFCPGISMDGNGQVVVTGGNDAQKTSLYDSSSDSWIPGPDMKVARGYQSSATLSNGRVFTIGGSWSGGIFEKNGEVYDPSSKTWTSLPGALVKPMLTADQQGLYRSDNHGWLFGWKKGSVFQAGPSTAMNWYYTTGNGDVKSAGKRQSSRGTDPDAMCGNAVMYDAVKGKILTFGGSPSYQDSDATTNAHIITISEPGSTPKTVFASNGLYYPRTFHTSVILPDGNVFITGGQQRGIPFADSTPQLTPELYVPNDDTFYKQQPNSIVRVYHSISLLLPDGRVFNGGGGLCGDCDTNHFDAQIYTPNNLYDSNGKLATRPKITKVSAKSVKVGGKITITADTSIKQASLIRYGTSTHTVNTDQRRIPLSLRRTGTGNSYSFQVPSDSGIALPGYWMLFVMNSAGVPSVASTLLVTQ

Compound | Km [1] [mM] | Vmax [1] [µmol/min/mg] | kcat [1] [s⁻¹] | kcat/Km [1] [M⁻¹ s⁻¹] | Km [2] [mM] | Vmax [2] [µmol/min/mg] | kcat [2] [s⁻¹] | kcat/Km [2] [M⁻¹ s⁻¹] | Km [3] [mM] | Vmax [3] [µmol/min/mg] | kcat [3] [s⁻¹] | kcat/Km [3] [M⁻¹ s⁻¹] | Km [4] [mM]
GalOx (galactose 6-oxidase from Fusarium oxysporum G12) (Fusarium oxysporum) | 45 | 81 | 99 | 2200 | 41 | 47 | 57 | 1400 | 23 | 23 | 28 | 1200 | 
OC[C@H]1OC(O)[C@H](O)[C@@H](O)[C@H]1O (stereo partly drawn) [D-galactose] |  |  |  |  |  |  |  |  |  |  |  |  | 47
